Values belong to the binder of their own block, whether it stands above or below them. Starred links: 1 amine or outer side, 2 acyl side, 3 side chain; linkers in the order of their positions; H or OH if unused. Positions of bridges follow the written chain, without caps; N, C: chain ends. Non-standard residues stand in square brackets, D forms with d. Primed or numbered codes have the meaning given here. No end group written: not given here. *: point of attachment. PyrS2″ = (S)-3-amino-1-((pent-4-en-1-yloxy)carbonyl)pyrrolidine-3-carboxylic acid (stapling residue), C=CCCCOC(=O)N1CC[C@@](N[*:1])(C(=O)[*:2])C1; B5(4) = 2,2-bis(4-pentenyl)glycine = 2-amino-2-(pent-4-en-1-yl)hept-6-enoic acid (stitching residue), C=CCCCC(CCCC=C)(N[*:1])C(=O)[*:2]; B5(5) = 2,2-bis(4-pentenyl)glycine, 2-amino-2-(pent-4-en-1-yl)hept-6-enoic acid (stitching residue), C=CCCCC(CCCC=C)(N[*:1])C(=O)[*:2]; TfeGA = (S)-2-amino-3-((carboxymethyl)(2,2,2-trifluoroethyl)amino)propanoic acid, O=C([C@H](CN(CC(=O)[*:3])CC(F)(F)F)N[*:1])[*:2]; PyrS2 = (S)-3-amino-1-((pent-4-en-1-yloxy)carbonyl)pyrrolidine-3-carboxylic acid, C=CCCCOC(=O)N1CC[C@@](N[*:1])(C(=O)[*:2])C1; (3C)TriAzLys = (S)-2-amino-6-(4-propyl-1H-1,2,3-triazol-1-yl)hexanoic acid, CCCc1cn(CCCC[C@H](N[*:1])C(=O)[*:2])nn1; PyrS2(5) = (S)-3-amino-1-((alkenyloxy)carbonyl)pyrrolidine-3-carboxylic acid, carbamate stapling residue; 2COOHF = (S)-2-(2-amino-2-carboxyethyl)benzoic acid, O=C([C@H](Cc1ccccc1C(=O)[*:3])N[*:1])[*:2]; B5(3) = 2,2-bis(4-pentenyl)glycine (stitching residue), C=CCCCC(CCCC=C)(N[*:1])C(=O)[*:2]; 2F3MeF = Cc1cccc(C[C@H](N[*:1])C(=O)[*:2])c1F; Phe(2-CF3) = N[C@@H](Cc1ccccc1C(F)(F)F)C(=O)O; Phe(2-Cl) = N[C@@H](Cc1ccccc1Cl)C(=O)O; Bta = N[C@@H](Cc1csc2ccccc12)C(=O)O; αAllylPro = C=CC[C@@]1(C(=O)O)CCCN1; tBuAla = CC(C)(C)C[C@H](N)C(=O)O; 2Thi = N[C@@H](Cc1cccs1)C(=O)O; 3Thi = N[C@@H](Cc1ccsc1)C(=O)O; Thr(ol) = C[C@@H](O)[C@H](N)CO; Alaol = C[C@@H](CO)N*
Experiments:
[1] = target: full-length beta-Catenin (Uniprot ID P35222) (Homo sapiens (Human)) (UniProt P35222); experiment: FP competition; full-length beta-catenin, competitor 5FAM-TCF4(10-53)
Target sequence in this assay (P35222 whole entry, one chain of several): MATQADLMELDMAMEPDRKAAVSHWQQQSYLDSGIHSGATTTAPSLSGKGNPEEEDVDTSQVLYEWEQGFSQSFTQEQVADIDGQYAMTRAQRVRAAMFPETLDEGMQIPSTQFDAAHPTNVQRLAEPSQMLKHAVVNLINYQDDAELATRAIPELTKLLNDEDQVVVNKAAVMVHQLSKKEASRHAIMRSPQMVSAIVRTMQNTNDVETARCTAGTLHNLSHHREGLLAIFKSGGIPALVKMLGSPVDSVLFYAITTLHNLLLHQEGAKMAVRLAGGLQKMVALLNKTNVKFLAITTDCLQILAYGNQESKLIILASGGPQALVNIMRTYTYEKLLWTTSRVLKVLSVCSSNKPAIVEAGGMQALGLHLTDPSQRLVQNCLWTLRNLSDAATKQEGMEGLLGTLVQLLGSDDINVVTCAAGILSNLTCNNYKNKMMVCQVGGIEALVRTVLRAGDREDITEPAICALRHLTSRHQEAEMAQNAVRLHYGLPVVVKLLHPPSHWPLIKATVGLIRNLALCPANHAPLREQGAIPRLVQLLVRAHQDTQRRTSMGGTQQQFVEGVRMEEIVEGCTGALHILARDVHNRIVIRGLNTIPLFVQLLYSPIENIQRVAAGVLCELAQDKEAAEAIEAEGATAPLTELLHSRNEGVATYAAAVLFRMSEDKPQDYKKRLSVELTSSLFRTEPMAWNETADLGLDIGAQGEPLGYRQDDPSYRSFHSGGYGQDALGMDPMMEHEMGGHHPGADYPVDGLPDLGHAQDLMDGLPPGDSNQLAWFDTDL

[2] = target: Bcat-Halo (UniProt P35222); experiment: NanoBRET Abs IC50, HEK293 cells; B-cat-Halo/TCF4-Luc engagement, competitor TCF4-Luc
[3] = target: full-length beta-Catenin (Uniprot ID P35222) (Homo sapiens (Human)) (UniProt P35222); experiment: fluorescence polarization competition; full-length beta-catenin with 5FAM-TCF4(10-53) probe as competitor
Target sequence in this assay (P35222 2-781 limits assumed): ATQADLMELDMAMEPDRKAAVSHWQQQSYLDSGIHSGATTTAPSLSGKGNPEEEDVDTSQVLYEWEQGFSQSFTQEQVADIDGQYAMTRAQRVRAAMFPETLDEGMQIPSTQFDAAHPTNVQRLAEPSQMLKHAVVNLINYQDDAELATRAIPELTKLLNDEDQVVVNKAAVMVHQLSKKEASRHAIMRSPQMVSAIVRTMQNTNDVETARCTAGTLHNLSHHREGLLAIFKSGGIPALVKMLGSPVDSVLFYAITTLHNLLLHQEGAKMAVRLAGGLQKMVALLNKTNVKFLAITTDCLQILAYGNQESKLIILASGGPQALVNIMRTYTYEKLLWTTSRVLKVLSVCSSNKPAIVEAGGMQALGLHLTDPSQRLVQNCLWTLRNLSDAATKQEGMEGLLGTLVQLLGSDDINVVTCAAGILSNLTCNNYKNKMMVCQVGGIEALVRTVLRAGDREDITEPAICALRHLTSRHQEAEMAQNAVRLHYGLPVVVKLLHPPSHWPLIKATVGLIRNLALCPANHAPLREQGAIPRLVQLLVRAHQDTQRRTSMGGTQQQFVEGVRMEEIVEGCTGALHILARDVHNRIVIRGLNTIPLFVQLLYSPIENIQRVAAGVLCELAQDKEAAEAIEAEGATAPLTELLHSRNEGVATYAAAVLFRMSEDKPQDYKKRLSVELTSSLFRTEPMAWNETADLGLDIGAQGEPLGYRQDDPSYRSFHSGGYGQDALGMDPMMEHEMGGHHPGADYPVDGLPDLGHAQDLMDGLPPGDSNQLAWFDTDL

[4] = target: B-cat-Halo (NanoBRET construct) (UniProt P35222); experiment: NanoBRET Abs IC50; Bcat-Halo/TCF4-Luc in HEK293 cells, competitor TCF4-Luc
[5] = target: full-length beta-Catenin (Uniprot ID P35222) (Homo sapiens (Human)) (UniProt P35222); experiment: fluorescence polarization competition; full-length beta-catenin, 5FAM-TCF4(10-53) probe
Target sequence in this assay (P35222 whole entry, one chain of several): as the sequence (P35222 whole entry, one chain of several) above

[6] = target: B-cat-Halo (beta-catenin HaloTag NanoBRET construct expressed in HEK293 cells) (UniProt P35222); experiment: NanoBRET in HEK293 cells, Bcat-Halo + TCF4-Luc, peptide at 10 uM
[7] = target: B-cat-Halo (beta-catenin HaloTag NanoBRET construct expressed in HEK293 cells) (UniProt P35222); experiment: NanoBRET in HEK293 cells, Bcat-Halo + TCF4-Luc (competitor partner TCF4)
[8] = target: full-length beta-Catenin (Uniprot ID P35222) (Homo sapiens (Human)) (UniProt P35222); experiment: fluorescence polarization competition; peptide displaces 5FAM-TCF4(10-53) from full-length beta-catenin
Target sequence in this assay (P35222 2-781 limits assumed): as the sequence (P35222 2-781 limits assumed) above

[9] = target: full-length beta-Catenin (Uniprot ID P35222) (Homo sapiens (Human)) (UniProt P35222); experiment: fluorescence polarization competition: peptide titrated against 10 nM full-length beta-catenin + 10 nM 5FAM-TCF4(10-53) probe
Target sequence in this assay (P35222 2-781 limits assumed): as above

[10] = target: B-cat-Halo (beta-catenin HaloTag NanoBRET construct expressed in HEK293 cells) (UniProt P35222); experiment: NanoBRET Abs IC50 in HEK293 cells; Bcat-Halo, TCF4-Luc as competitor
[11] = target: full-length beta-Catenin (Uniprot ID P35222) (Homo sapiens (Human)) (UniProt P35222); experiment: FP competition: displacement of 5FAM-TCF4(10-53) from full-length beta-catenin
Target sequence in this assay (P35222 whole entry, one chain of several): as the sequence (P35222 whole entry, one chain of several) above

[12] = target: full-length beta-Catenin (Uniprot ID P35222) (Homo sapiens (Human)) (UniProt P35222); experiment: fluorescence polarization competition; full-length beta-catenin, 5FAM-TCF4(10-53) probe as competitor
Target sequence in this assay (P35222 2-781 limits assumed): as the sequence (P35222 2-781 limits assumed) above

[13] = target: Bcat-Halo (UniProt P35222); experiment: NanoBRET in HEK293 cells, Bcat-Halo / TCF4-Luc; absolute IC50
[14] = target: full-length beta-Catenin (Uniprot ID P35222) (Homo sapiens (Human)) (UniProt P35222); experiment: fluorescence polarization competition; 10 nM full-length beta-catenin, 10 nM 5FAM-TCF4(10-53) probe
Target sequence in this assay (P35222 2-781 limits assumed): as above

[15] = target: Bcat-Halo (UniProt P35222); experiment: NanoBRET absolute IC50, HEK293 cells, Bcat-Halo/TCF4-Luc engagement
[16] = target: full-length beta-Catenin (Uniprot ID P35222) (Homo sapiens (Human)) (UniProt P35222); experiment: FP competition, full-length beta-catenin, competitor probe 5FAM-TCF4 10-53
Target sequence in this assay (P35222 2-781 limits assumed): as above

[17] = target: Bcat-Halo (UniProt P35222); experiment: NanoBRET Abs IC50, HEK293 cells, B-cat-Halo / TCF4-Luc engagement
[18] = target: full-length beta-Catenin (Uniprot ID P35222) (Homo sapiens (Human)) (UniProt P35222); experiment: fluorescence polarization competition against 5FAM-TCF4 10-53 on full-length beta-catenin
Target sequence in this assay (P35222 whole entry, one chain of several): as the sequence (P35222 whole entry, one chain of several) above

B-cat-Halo (NanoBRET construct), sequence (P35222 whole entry): as the sequence (P35222 whole entry, one chain of several) above
Bcat-Halo, sequence (P35222 whole entry): as the sequence (P35222 whole entry, one chain of several) above
B-cat-Halo (beta-catenin HaloTag NanoBRET construct expressed in HEK293 cells), sequence (P35222 whole entry): as the sequence (P35222 whole entry, one chain of several) above

B3: I-784 (peptide)
peptide: Ac-[αAllylPro]D[tBuAla][B5(5)]DDAAFN[PyrS2][Phe(2-Cl)][Bta]H-NH2
modifications: staple 1-4, 4-11
NanoBRET % inh @ 10 uM [6]: 35.1%
IC50 [7]: 12100 nM
IC50 [8]: 6 nM
EC50 [9]: 6 nM

B5: I-1241 (peptide)
peptide: Ac-[αAllylPro]D[tBuAla][B5(4)]D[TfeGA]AAFT[PyrS2″][Phe(2-Cl)][Bta][Thr(ol)]
modifications: staple 1-4, 4-11
IC50 [10]: 15700 nM
EC50 [11]: 19 nM
IC50 [12]: 19 nM

B6: I-1242 (peptide)
peptide: Ac-[αAllylPro]D[tBuAla][B5(4)]D[TfeGA]AAFT[PyrS2″][Phe(2-Cl)][Bta]-Alaol
modifications: staple 1-4, 4-11
IC50 [10]: > 20000 nM
EC50 [11]: 30 nM
IC50 [12]: 30 nM

B7: I-1356 (peptide)
peptide: [αAllylPro]D[tBuAla][B5(4)]DDAAFS[PyrS2″]F[Bta]S-NH2
modifications: staple 1-4, 4-11
EC50 [1]: 23 nM
IC50 [2]: > 20000 nM
IC50 [3]: 23 nM

B10: I-1345 (peptide)
peptide: [αAllylPro]D[tBuAla][B5(4)]DDAAFF[PyrS2″][2Thi][Bta]Q-NH2
modifications: staple 1-4, 4-11
IC50 [15]: 4700 nM
EC50 [1]: 15 nM
IC50 [16]: 15 nM
IC50 [2]: 4700 nM

B11: I-1357 (peptide)
peptide: [αAllylPro]D[tBuAla][B5(4)]DDAAFS[PyrS2″]F[Bta]S-NH2
modifications: staple 1-4, 4-11
EC50 [1]: 10 nM
IC50 [2]: 33600 nM
IC50 [3]: 10 nM

Other lines, results leading:

EC50 [1]: 9 nM
IC50 [2]: 5500 nM
IC50 [3]: 9 nM
B1: I-1363 (peptide)
peptide: Ac-[αAllylPro]D[tBuAla][B5(4)]DDAAF[Phe(2-CF3)][PyrS2][3Thi][Bta]Q-NH2
modifications: staple 1-4, 4-11

IC50 [4]: 8000 nM
IC50 [5]: 22 nM
B2: I-1664 (peptide)
peptide: Ac-[αAllylPro]D[tBuAla][B5(5)]D[2COOHF]AAFF[PyrS2″][3Thi][Bta]S-NH2
modifications: staple 1-4, 4-11

IC50 [4]: 9700 nM
IC50 [5]: 17 nM
B4: I-1665 (peptide)
peptide: Ac-[αAllylPro]D[tBuAla][B5(5)]D[2COOHF]AAFF[PyrS2″][3Thi][Bta]S-NH2
modifications: staple 1-4, 4-11

IC50 [4]: 16400 nM
IC50 [5]: 29 nM
B8: I-1668 (peptide)
peptide: Ac-[αAllylPro]D[tBuAla][B5(5)]D[2COOHF]AAFF[PyrS2″][3Thi][Bta][Thr(ol)]
modifications: staple 1-4, 4-11; also: staple isomer, earlier-eluting HPLC peak

IC50 [13]: 11400 nM
IC50 [14]: 108 nM
B9: I-1659 (peptide)
peptide: Ac-[αAllylPro]D[tBuAla][B5(5)]D[2COOHF]AAFF[PyrS2″][2F3MeF][Bta]S-NH2
modifications: staple 1-4, 4-11

IC50 [17]: 13500 nM
IC50 [18]: 5 nM
B12: I-2375 (peptide)
peptide: Ac-[αAllylPro]D[tBuAla][B5(4)]DDAAFL[PyrS2″][3Thi][Bta][(3C)TriAzLys]-NH2
modifications: staple 1-4, 4-11

IC50 [4]: 11800 nM
IC50 [5]: 30 nM
B13: I-1669 (peptide)
peptide: Ac-[αAllylPro]D[tBuAla][B5(5)]D[2COOHF]AAFF[PyrS2(5)][3Thi][Bta][Thr(ol)]
modifications: staple 1-4, 4-11; also: staple isomer, later-eluting HPLC peak
